In paper PMC3469418, “New Partners in Regulation of Gene Expression: The Enhancer of Trithorax and Polycomb Corto Interacts with Methylated Ribosomal Protein L12 Via Its Chromodomain” (PLoS Genetics, 2012):
Where two headings read alike, the source gives them in different places.

Experiments:
Experiment in all cases: SPR; Biacore 3000; GST, GST-CortoCD or GST-HP1CD covalently coupled to a CM5 chip; peptides injected at 1 or 10 µM (binding test) or in series from 1 to 10 µM (kinetics), 5 µL/min, 5 min; 10 mM Hepes pH7.4, 150 mM NaCl, 3 mM EDTA, 0.005% P20; 1:1 Langmuir fit
[1] = target: GST-CortoCD (Corto chromodomain fused to GST) (D. melanogaster)
[2] = target: GST-CortoCD (Corto chromodomain fused to GST) (D. melanogaster); remark: listed apart in the source
[3] = target: GST-HP1CD (HP1 chromodomain fused to GST)

Substance | Kd [1] [µM] | Kd [2] [µM] | Kd [3] [µM]
RPL12 peptide trimethylated on lysine 3 | 8 | < 100 | > 200
RPL12 peptide trimethylated on lysine 10 | > 200 |  | > 200
histone H3 peptide trimethylated on lysine 9 |  |  | 0.4
histone H3 peptide trimethylated on lysine 27 |  |  | 0.7

More lines, now with the values ahead:

Kd [1] [µM] | Kd [2] [µM] | Kd [3] [µM] | Substance
> 200 |  |  | RPL12 peptide dimethylated on lysine 3
> 200 |  | > 200 | RPL12 unmodified peptide
